Patent US20180256687A1
Read-outs that look alike come from different tables or passages of the source. One block for each substance: values may come before it.

Columns and labels:
[1] = biological target: PTP Receptor type C (PTPRC or CD45) (human) (UniProt P08575); test: cell-based or functional assay
[2] = biological target: Protein tyrosine phosphatase receptor type gamma (PTPRG) (human) (UniProt P23470); test: cell-based or functional assay
[3] = biological target: JAK2 (Janus protein-tyrosine kinase 2) (human) (UniProt O60674)
[4] = biological target: JAK2 (Janus protein-tyrosine kinase 2) (human) (UniProt O60674); test: negative-control pull-down on nickel gel; lysate of resting human monocytes; mean of 3 experiments

Sequence of PTP Receptor type C (PTPRC or CD45) (human) (P08575 26-1306 limits assumed): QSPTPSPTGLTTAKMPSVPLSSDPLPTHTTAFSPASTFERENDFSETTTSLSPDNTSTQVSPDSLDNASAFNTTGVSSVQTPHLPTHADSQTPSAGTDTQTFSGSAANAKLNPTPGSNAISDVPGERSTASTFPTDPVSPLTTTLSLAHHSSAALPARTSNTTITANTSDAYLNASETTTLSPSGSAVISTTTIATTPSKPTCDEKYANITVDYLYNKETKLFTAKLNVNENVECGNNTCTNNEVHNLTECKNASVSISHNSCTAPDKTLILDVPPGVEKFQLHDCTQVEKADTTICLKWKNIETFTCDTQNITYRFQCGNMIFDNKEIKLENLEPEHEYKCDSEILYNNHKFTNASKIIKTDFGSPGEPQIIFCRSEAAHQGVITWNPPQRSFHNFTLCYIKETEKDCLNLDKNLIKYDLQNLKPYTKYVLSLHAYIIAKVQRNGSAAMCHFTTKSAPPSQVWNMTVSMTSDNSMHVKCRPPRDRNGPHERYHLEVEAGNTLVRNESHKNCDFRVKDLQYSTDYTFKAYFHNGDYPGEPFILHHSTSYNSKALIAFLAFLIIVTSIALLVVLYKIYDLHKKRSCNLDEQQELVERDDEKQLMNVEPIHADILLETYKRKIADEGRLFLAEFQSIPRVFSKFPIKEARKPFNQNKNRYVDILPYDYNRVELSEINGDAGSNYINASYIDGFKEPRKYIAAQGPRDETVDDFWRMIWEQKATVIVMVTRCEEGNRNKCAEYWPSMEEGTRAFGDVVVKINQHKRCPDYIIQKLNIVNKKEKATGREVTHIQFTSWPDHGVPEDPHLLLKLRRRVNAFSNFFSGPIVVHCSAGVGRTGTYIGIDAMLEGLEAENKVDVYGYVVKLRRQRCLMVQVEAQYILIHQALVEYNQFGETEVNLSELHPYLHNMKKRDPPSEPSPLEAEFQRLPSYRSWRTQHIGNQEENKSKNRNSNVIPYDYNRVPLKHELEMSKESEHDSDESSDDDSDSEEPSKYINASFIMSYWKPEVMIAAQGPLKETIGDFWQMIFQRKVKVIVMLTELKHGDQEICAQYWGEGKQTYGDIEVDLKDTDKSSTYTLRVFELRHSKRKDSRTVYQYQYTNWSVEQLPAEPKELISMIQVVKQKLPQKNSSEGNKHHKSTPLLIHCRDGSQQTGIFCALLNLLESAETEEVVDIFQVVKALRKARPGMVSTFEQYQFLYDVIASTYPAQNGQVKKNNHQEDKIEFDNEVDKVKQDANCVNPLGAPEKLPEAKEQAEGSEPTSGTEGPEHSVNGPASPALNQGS

phosphatase activity (pNPP, absorbance at 405 nm, percent fold increase over the blank) in PMN membrane fractions, P1-WD 50 micromolar (percent fold increase over the blank) [1]: 5.15
phosphatase activity (pNPP, absorbance at 405 nm, percent fold increase over the blank) in PMN membrane fractions, P1-WD 100 micromolar (percent fold increase over the blank) [1]: 8.54
phosphatase activity (pNPP, absorbance at 405 nm, percent fold increase over the blank) in PMN membrane fractions, P1-WD 200 micromolar (percent fold increase over the blank) [1]: 12.9
phosphatase activity (pNPP, absorbance at 405 nm, percent fold increase over the blank) in monocyte membrane fractions, P1-WD 50 micromolar (percent fold increase over the blank) [2]: 34.6
phosphatase activity (pNPP, absorbance at 405 nm, percent fold increase over the blank) in monocyte membrane fractions, P1-WD 100 micromolar (percent fold increase over the blank) [2]: 86.7
phosphatase activity (pNPP, absorbance at 405 nm, percent fold increase over the blank) in monocyte membrane fractions, P1-WD 200 micromolar (percent fold increase over the blank) [2]: 109
Substance: P1-WD Trojan peptide (Penetratin fused to the PTPRG wedge domain)

phosphatase activity (pNPP, absorbance at 405 nm, percent fold increase over the blank) in monocyte membrane fractions, P1 control (percent fold increase over the blank) [2]: 16
Substance: P1 (Penetratin 1) control peptide

Substance: TAT-eGFP
JAK2 band (anti-JAK2 Western blot of pull-down), mean [3]: 1.5
JAK2 band (anti-JAK2 Western blot of pull-down), mean [4]: 4.4
